# Test results reported in patent US20240018502A1.
# Changes are numbered by the printed parent chain. Names may count otherwise.
# B1: MTSP-1 protease domain I41E/F97V/F99L/C122S/G151N/Q192S/D217H (enzyme)
# chain: VVGGTDADEGEWPWQVSLHALGQGHECGASLISPNWLVSAAHCYIDDRGFRYSDPTQWTAFLGLHDQSQRSAPGVQERRLKRIISHPFFNDVTLDYDIALLELEKPAEYSSMVRPISLPDASHVFPAGKAIWVTGWGHTQYGGTNALILQKGEIRVINQTTCENLLPQQITPRMMCVGFLSGGVDSCSGDSGGPLSSVEADGRIFQAGVVSWGHGCAQRNKPGVYTRLPLFRDWIKENTGV
# B2: MTSP-1 protease domain I41E/F97V/F99L/C122S/G151N/Q175L/D217H (enzyme)
# chain: B1 chain with Q169L, S188Q
# B3: MTSP-1 protease domain I41E/F97V/F99L/C122S/G151N/Q175L/Q192S (enzyme)
# chain: B1 chain with Q169L, H214D
# B4: MTSP-1 protease domain F97R/F99L/C122S/G151Q/Q175R/Q192V/D217L (enzyme)
# chain: B1 chain with E26I, V92R, N145Q, Q169R, S188V, H214L
# B5: MTSP-1 protease domain I41D/F99L/C122S/G151Q/Q175R/Q192V/D217L (enzyme)
# chain: B1 chain with E26D, V92F, N145Q, Q169R, S188V, H214L
# B6: MTSP-1 Q38H/I41S/D60bT/F60eS/Y60gW/D96K/F97G/ins97aV/T98P/F99L/C122S/G151H/Q175L (enzyme)
# chain: VVGGTDADEGEWPWQVSLHALGHGHSCGASLISPNWLVSAAHCYIDTRGSRWSDPTQWTAFLGLHDQSQRSAPGVQERRLKRIISHPFFNKGVPLDYDIALLELEKPAEYSSMVRPISLPDASHVFPAGKAIWVTGWGHTQYGGTHALILQKGEIRVINQTTCENLLPQLITPRMMCVGFLSGGVDSCQGDSGGPLSSVEADGRIFQAGVVSWGDGCAQRNKPGVYTRLPLFRDWIKENTGV
# B7: MTSP-1 protease domain I41D/F97R/F99L/C122S/Q175R/Q192V/D217L (enzyme)
# chain: B1 chain with E26D, V92R, N145G, Q169R, S188V, H214L
# B8: MTSP-1 protease domain I41D/F97R/F99L/C122S/G151Q/Q192V/D217L (enzyme)
# chain: B1 chain with E26D, V92R, N145Q, S188V, H214L
# B9: MTSP-1 protease domain I41D/F97R/F99L/C122S/G151Q/Q175R/D217L (enzyme)
# chain: B1 chain with E26D, V92R, N145Q, Q169R, S188Q, H214L
# B10: MTSP-1 protease domain I41D/F97R/F99L/C122S/G151Q/Q175R/Q192V (enzyme)
# chain: B1 chain with E26D, V92R, N145Q, Q169R, S188V, H214D
# B11: MTSP-1 protease domain I41E/F97R/F99L/C122S/G151Q/Q175G/Q192T (enzyme)
# chain: B1 chain with V92R, N145Q, Q169G, S188T, H214D
# B12: MTSP-1 protease domain I41D/F99L/C122S/G151N/Q175S/Q192T/D217A (enzyme)
# chain: B1 chain with E26D, V92F, Q169S, S188T, H214A
# B13: MTSP-1 protease domain I41D/F97T/F99L/C122S/Q175S/Q192T/D217A (enzyme)
# chain: B1 chain with E26D, V92T, N145G, Q169S, S188T, H214A
# B14: MTSP-1 protease domain I41D/F97T/F99L/C122S/G151N/Q192T/D217A (enzyme)
# chain: B1 chain with E26D, V92T, S188T, H214A
# B15: MTSP-1 protease domain I41D/F97T/F99L/C122S/G151N/Q175S/D217A (enzyme)
# chain: B1 chain with E26D, V92T, Q169S, S188Q, H214A
# B16: MTSP-1 protease domain I41D/F97T/F99L/C122S/G151N/Q175S/Q192T (enzyme)
# chain: B1 chain with E26D, V92T, Q169S, S188T, H214D
# B17: MTSP-1 I41D/C122S/G151N/Q192T (enzyme)
# chain: B1 chain with E26D, V92F, L94F, S188T, H214D
# B18: MTSP-1 protease domain F97T/F99L/C122S/G151N/Q175S/Q192T/D217A (enzyme)
# chain: B1 chain with E26I, V92T, Q169S, S188T, H214A
# B19: MTSP-1 protease domain I41S/F97Q/F99L/C122S/Q175W/Q192V/D217R (enzyme)
# chain: B1 chain with E26S, V92Q, N145G, Q169W, S188V, H214R
# B20: MTSP-1 protease domain I41G/F97L/F99L/C122S/G151N/Q192V/D217L (enzyme)
# chain: B1 chain with E26G, V92L, S188V, H214L
# B21: MTSP-1 protease domain I41G/F97A/F99L/C122S/G151N/Q175M/Q192S (enzyme)
# chain: B1 chain with E26G, V92A, Q169M, H214D
# B22: MTSP-1 protease domain I41G/F97V/F99L/C122S/G151N/Q192T/D217V (enzyme)
# chain: B1 chain with E26G, S188T, H214V
# B23: MTSP-1 protease domain I41D/F97R/F99L/C122S/Q175L/Q192T/D217I (enzyme)
# chain: B1 chain with E26D, V92R, N145G, Q169L, S188T, H214I
# B24: MTSP-1 protease domain I41E/F97S/F99L/C122S/Q175L/Q192V/D217A (enzyme)
# chain: B1 chain with V92S, N145G, Q169L, S188V, H214A
# B25: MTSP-1 protease domain F97L/F99L/C122S/Q175K/Q192V/D217M (enzyme)
# chain: B1 chain with E26I, V92L, N145G, Q169K, S188V, H214M
# B26: MTSP-1 protease domain F97E/F99L/C122S/G151A/Q192V (enzyme)
# chain: B1 chain with E26I, V92E, N145A, S188V, H214D
# B27: MTSP-1 protease domain F97E/F99L/C122S/Q175H/Q192V/D217P (enzyme)
# chain: B1 chain with E26I, V92E, N145G, Q169H, S188V, H214P
# B28: MTSP-1 I41S/F99L/C122S/G151N/Q192V (enzyme)
# chain: B1 chain with E26S, V92F, S188V, H214D
# B29: MTSP-1 protease domain F97R/ins97aI/T98P/C122S/Q175M/Q192V/D217I (enzyme)
# chain: VVGGTDADEGEWPWQVSLHALGQGHICGASLISPNWLVSAAHCYIDDRGFRYSDPTQWTAFLGLHDQSQRSAPGVQERRLKRIISHPFFNDRIPFDYDIALLELEKPAEYSSMVRPISLPDASHVFPAGKAIWVTGWGHTQYGGTGALILQKGEIRVINQTTCENLLPQMITPRMMCVGFLSGGVDSCVGDSGGPLSSVEADGRIFQAGVVSWGIGCAQRNKPGVYTRLPLFRDWIKENTGV
# B30: MTSP-1 protease domain I41D/F99L/C122S/G151N/Q192T/D217A (enzyme)
# chain: B1 chain with E26D, V92F, S188T, H214A
# B31: MTSP-1 protease domain I41D/F99L/C122S/G151N/Q175S/Q192T (enzyme)
# chain: B1 chain with E26D, V92F, Q169S, S188T, H214D
# B32: MTSP-1 protease domain I41D/F97T/F99L/C122S/G151N/Q192T (enzyme)
# chain: B1 chain with E26D, V92T, S188T, H214D
# B33: MTSP-1 protease domain I41D/F99L/C122S/G151N/Q192T (enzyme)
# chain: B1 chain with E26D, V92F, S188T, H214D
# B34: MTSP-1 protease domain I41D/F99L/C122S/Q175S/Q192T (enzyme)
# chain: B1 chain with E26D, V92F, N145G, Q169S, S188T, H214D
# B35: MTSP-1 protease domain I41D/F99L/C122S/Q192T (enzyme)
# chain: B1 chain with E26D, V92F, N145G, S188T, H214D
# B36: MTSP-1 protease domain Q38R/I41G/Y60gG/F99M/C122S/G151N/Q192R (enzyme)
# chain: B1 chain with Q23R, E26G, Y52G, V92F, L94M, S188R, H214D
# B37: MTSP-1 protease domain Q38K/I41G/Y60gG/F99L/C122S/G151N/Q192H (enzyme)
# chain: B1 chain with Q23K, E26G, Y52G, V92F, S188H, H214D
# B38: MTSP-1 protease domain Q38L/I41R/Y60gF/F99L/C122S/G151N/Q192A (enzyme)
# chain: B1 chain with Q23L, E26R, Y52F, V92F, S188A, H214D
# B39: MTSP-1 I41E/F99L/C122S/G151N/Q192T (enzyme)
# chain: B1 chain with V92F, S188T, H214D
# B40: MTSP-1 protease domain Q38K/I41D/Y60gG/F99L/C122S/G151N (enzyme)
# chain: B1 chain with Q23K, E26D, Y52G, V92F, S188Q, H214D
# B41: MTSP-1 protease domain Q38R/I41R/Y60gF/F99L/C122S/G151N/Q192G (enzyme)
# chain: B1 chain with Q23R, E26R, Y52F, V92F, S188G, H214D
# B42: MTSP-1 protease domain Q38S/I41S/Y60gW/F99L/C122S/G151D/Q192T (enzyme)
# chain: B1 chain with Q23S, E26S, Y52W, V92F, N145D, S188T, H214D
# B43: MTSP-1 protease domain Q38K/I41G/Y60gW/F99L/C122S/G151N/Q192A (enzyme)
# chain: B1 chain with Q23K, E26G, Y52W, V92F, S188A, H214D
# B44: MTSP-1 protease domain Q38H/I41S/Y60gW/C122S/G151H/Q192A (enzyme)
# chain: B1 chain with Q23H, E26S, Y52W, V92F, L94F, N145H, S188A, H214D
# B45: MTSP-1 protease domain Q38K/I41S/Y60gW/F99L/C122S/G151N/Q192G (enzyme)
# chain: B1 chain with Q23K, E26S, Y52W, V92F, S188G, H214D
# B46: MTSP-1 protease domain Q38F/I41S/Y60gA/C122S/G151N/Q192R (enzyme)
# chain: B1 chain with Q23F, E26S, Y52A, V92F, L94F, S188R, H214D
# B47: MTSP-1 protease domain Q38R/I41S/Y60gW/F99L/C122S/G151N/Q192E (enzyme)
# chain: B1 chain with Q23R, E26S, Y52W, V92F, S188E, H214D
# B48: MTSP-1 protease domain Q38K/I41R/Y60gG/F99L/C122S/G151N/Q192G (enzyme)
# chain: B1 chain with Q23K, E26R, Y52G, V92F, S188G, H214D
# B49: MTSP-1 protease domain Q38R/I41R/F99L/C122S/G151N/Q192G (enzyme)
# chain: B1 chain with Q23R, E26R, V92F, S188G, H214D
# B50: MTSP-1 I41D/Y59F/D96E/F99L/C122S/G151N/Q192T (enzyme)
# chain: B1 chain with E26D, Y44F, D91E, V92F, S188T, H214D
# B51: MTSP-1 protease domain Q38R/I41R/Y60gL/F99L/C122S/G151N/Q192G (enzyme)
# chain: B1 chain with Q23R, E26R, Y52L, V92F, S188G, H214D
# B52: MTSP-1 protease domain I41E/C122S/G151N/Q175L/Q192A (enzyme)
# chain: B1 chain with V92F, L94F, Q169L, S188A, H214D
# Biological target: plasma purified human complement protein C3 (human) (UniProt P01024)
# Sequence (P01024 23-667, chain 1 of 2): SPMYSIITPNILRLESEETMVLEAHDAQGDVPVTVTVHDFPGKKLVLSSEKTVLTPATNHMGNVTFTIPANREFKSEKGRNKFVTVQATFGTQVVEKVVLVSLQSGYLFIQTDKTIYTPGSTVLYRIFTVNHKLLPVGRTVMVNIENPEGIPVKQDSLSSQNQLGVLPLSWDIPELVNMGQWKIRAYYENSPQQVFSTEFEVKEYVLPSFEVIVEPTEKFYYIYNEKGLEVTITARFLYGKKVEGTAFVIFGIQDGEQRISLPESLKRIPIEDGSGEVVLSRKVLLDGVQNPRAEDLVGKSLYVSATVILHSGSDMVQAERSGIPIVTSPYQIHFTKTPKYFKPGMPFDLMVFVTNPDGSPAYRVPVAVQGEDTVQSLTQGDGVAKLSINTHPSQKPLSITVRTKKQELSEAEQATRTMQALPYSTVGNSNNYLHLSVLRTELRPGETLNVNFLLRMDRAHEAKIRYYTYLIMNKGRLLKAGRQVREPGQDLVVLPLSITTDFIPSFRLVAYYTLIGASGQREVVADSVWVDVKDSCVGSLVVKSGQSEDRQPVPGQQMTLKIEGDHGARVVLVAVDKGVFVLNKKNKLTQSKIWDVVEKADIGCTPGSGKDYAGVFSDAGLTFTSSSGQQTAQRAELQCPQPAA
# Sequence (P01024 672-1663, chain 2 of 2): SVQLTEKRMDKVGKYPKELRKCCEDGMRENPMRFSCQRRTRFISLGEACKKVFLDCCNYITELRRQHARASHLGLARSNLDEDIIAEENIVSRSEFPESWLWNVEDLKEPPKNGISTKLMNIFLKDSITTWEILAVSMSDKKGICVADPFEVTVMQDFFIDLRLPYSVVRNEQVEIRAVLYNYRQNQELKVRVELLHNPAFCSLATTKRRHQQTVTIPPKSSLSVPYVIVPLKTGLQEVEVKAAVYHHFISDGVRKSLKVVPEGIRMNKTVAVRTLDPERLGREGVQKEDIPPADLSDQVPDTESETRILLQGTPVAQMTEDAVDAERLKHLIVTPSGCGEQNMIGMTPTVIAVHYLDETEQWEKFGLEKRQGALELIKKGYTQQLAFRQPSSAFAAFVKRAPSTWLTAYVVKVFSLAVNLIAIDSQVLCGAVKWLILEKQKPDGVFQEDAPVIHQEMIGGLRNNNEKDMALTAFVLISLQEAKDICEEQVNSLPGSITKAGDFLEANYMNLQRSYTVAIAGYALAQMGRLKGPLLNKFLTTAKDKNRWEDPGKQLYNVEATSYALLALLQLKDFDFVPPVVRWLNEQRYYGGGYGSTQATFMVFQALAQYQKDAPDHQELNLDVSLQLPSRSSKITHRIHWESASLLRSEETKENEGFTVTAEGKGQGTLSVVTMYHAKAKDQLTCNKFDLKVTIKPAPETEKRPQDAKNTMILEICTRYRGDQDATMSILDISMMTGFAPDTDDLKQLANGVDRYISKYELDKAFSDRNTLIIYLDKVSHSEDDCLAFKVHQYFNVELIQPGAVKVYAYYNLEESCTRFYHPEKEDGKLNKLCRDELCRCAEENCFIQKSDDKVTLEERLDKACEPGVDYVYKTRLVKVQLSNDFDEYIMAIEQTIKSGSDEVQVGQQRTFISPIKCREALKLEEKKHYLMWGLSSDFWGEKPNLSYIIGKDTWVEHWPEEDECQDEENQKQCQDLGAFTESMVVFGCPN
# Test: cell-based or functional assay
Binder,EC50 hC3 cleavage [nM],EC50 of hC3 cleavage [nM]
B1,42.2,
B2,16.5,
B3,51.2,
B4,137,
B5,31.6,
B6,,1.45
B7,50.6,
B8,42.3,
B9,19.4,
B10,79.4,
B11,41.1,
B12,30.5,
B13,52.1,
B14,70.4,
B15,25.5,
B16,56.7,
B17,,85.2
B18,172,
B19,50.6,
B20,112,
B21,73.1,
B22,30.5,
B23,5.72,
B24,89.9,
B25,463,
B26,1040,

Binder,EC50 hC3 cleavage [nM],EC50 of hC3 cleavage [nM]
B27,7770,
B28,,34.4
B29,23.6,
B30,45.1,
B31,28.6,
B32,84.3,
B33,47,
B34,27.4,
B35,59.4,
B36,147,
B37,17.9,
B38,151,
B39,,124
B40,52.7,
B41,197,
B42,15,
B43,9.96,
B44,8.96,
B45,35.1,
B46,33.1,
B47,116,
B48,335,
B49,248,
B50,,54.9
B51,388,
B52,45,
